Test results: the PETadex activity labels (doi:10.1073/pnas.2006753117)

Legend:
[1] = substrate: MHET; assay: Proxy for plastic degradation [kcat] (s⁻¹); conditions: pH 7.5
[2] = substrate: PET; assay: Proxy for plastic degradation [Released monomer concentration (HPLC/LC-MS) (BHET+MHET+TPA)]; conditions: pH 7.5; part of the chain shown

| Protein | Proxy for plastic degradation [1] | Proxy for plastic degradation ([1]; part of the chain shown) | Proxy for plastic degradation [2] [mM] |
| --- | --- | --- | --- |
| unnamed (protein) MKSSIPISVGMLATALISGCGSVPDNTSNEPTVPLASKELCEGIASGATKVNWPNQNTVVKASVWHAVTPATANAPELPEHCEVTGSINQRTGVDGYPYEIKMRLRMPADWNGRFFMEGGGGTNGSLSAALGSLGGGQTSNALSRRFATVSTDGGHDNAVNNNPAALGSVAFGMDPQARLDHGYNSYDQVTLAGKSAVSTFYGRGPDKSYFIGCSEGGREGMMFSQRFPAHYDGIVAGAPGYQLPKAGISGAWTTQSLAPAAVGVDPDGAPLVNKSFSDPDLYLLTQAILGSCDALDGLADGIVGNYSACQSLFDPSTALNPATGQPLRCTGAKTDDCLSPVQVDAIKRAMSGPVDTAGTALYNKWPWDTGMSGLNGTTYFQGWRSWWLGSYDSSTNNAQRVNGSSARSWLVDFATPPEPVPLNQVATRMMNFDFDVDPPKIFATSGLFTQPSMQWHGATSTDLNAFRSRGGKLMLYHGMADAAFSALDTIAYYERLSTAMPSVSDFSRLFLVPGMGHCSGGPGTDRFDMLTPLVAWVENGTAPARVEASSSTPGYFGVSARSRPLCPHPQIARYTGSGDINEATNFVCGNP | 3.8 |  |  |
| unnamed (protein) MNFPRASRLMQAAVLGGLMAVSAAATAQTNPYARGPNPTAASLEASAGPFTVRSFTVSRPSGYGAGTVYYPTNAGGTVGAIAIVPGYTARQSSIKWWGPRLASHGFVVITIDTNSTLDQPSSRSSQQMAALRQVASLNGTSSSPIYGKVDTARMGVMGCSMGGGGSLISAANNPSLKAAAPQAPWDSSTNFSSVTVPTLIFACENDSIAPVNSSALPIYDSMSRNAKQFLEINGGSHCCANSGNSNQALIGKKGVAWMKRFMDNDTRYSTFACENPNSTRVSDFRTANCS | 0.03 |  |  |
| unnamed (protein) MQTTVTTMLLASVALAACAGGGSTPLPLPQQQPPQQEPPPPPVPLASRAACEALKDGNGDMVWPNAATVVEVAAWRDAAPATASAAALPEHCEVSGAIAKRTGIDGYPYEIKFRLRMPAEWNGRFFMEGGSGTNGSLSAATGSIGGGQIASALSRNFATIATDGGHDNAVNDNPDALGTVAFGLDPQARLDMGYNSYDQVTQAGKAAVARFYGRAADKSYFIGCSEGGREGMMLSQRFPSHYDGIVAGAPGYQLPKAGISGAWTTQSLAPAAVGLDAQGVPLINKSFSDADLHLLSQAILGTCDALDGLADGIVDNYRACQAAFDPATAANPANGQALQCVGAKTADCLSPVQVTAIKRAMAGPVNSAGTPLYNRWAWDAGMSGLSGTTYNQGWRSWWLGSFNSSANNAQRVSGFSARSWLVDFATPPEPMPMTQVAARMMKFDFDIDPLKIWATSGQFTQSSMDWHGATSTDLAAFRDRGGKMILYHGMSDAAFSALDTADYYERLGAAMPGAAGFARLFLVPGMNHCSGGPGTDRFDMLTPLVAWVERGEAPDQISAWSGTPGYFGVAARTRPLCPYPQIARYKGSGDINTEANFACAAPP |  | 27.6 | 0 |
| unnamed (protein) MNFPRASRLMQAAVLGGLMAVSAAATAQTNPYARGPNPTAASLEASAGPFTVRSFTVSRPSGYGAGTVYYPTNAGGTVGAIAIVPGYTARQSSIKWWGPRLASHGFVVITIDTNSTLDQPSSRSSQQMAALRQVASLNGTSSSPIYGKVDTARMGVMGWSMGGGGSLISAANNPSLKAAAPQAPWDSSTNFSSVTVPTLIFACENDSIAPVNSSALPIYDSMSRNAKQFLEINGGSHSCANSGNSNQALIGKKGVAWMKRFMDNDTRYSTFACENPNSTRVSDFRTANCS |  | 0 |  |
